The results in this text go back to patent US20050013803A1 (published 2005).

Experiment in all cases: co-immunoprecipitation with anti-Taz antibody from infected BMK cells, Western blot
On the technique in general: Immunoblotting shows a protein as a band on a membrane.

The target of assay [1] is T1, polyoma virus large T antigen, wild-type (strain PTA), full length (murine polyoma virus, strain PTA).
T1 construct: mature; also called normal large T antigen; WT large T antigen

For assay [2], the target named is T2, polyoma virus small T antigen, wild-type (murine polyoma virus).
T2 construct: also called sT
T2 sequence (P68834 whole entry): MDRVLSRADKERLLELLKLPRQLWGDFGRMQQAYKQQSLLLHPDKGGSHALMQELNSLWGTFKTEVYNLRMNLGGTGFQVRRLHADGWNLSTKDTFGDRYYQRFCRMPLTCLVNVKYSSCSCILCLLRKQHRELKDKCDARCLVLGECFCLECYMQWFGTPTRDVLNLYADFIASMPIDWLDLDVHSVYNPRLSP

Assay [3] addresses T3, polyoma virus middle T antigen, wild-type (murine polyoma virus).
T3 construct: also called mT

T1 sequence (P0DOJ5 whole entry): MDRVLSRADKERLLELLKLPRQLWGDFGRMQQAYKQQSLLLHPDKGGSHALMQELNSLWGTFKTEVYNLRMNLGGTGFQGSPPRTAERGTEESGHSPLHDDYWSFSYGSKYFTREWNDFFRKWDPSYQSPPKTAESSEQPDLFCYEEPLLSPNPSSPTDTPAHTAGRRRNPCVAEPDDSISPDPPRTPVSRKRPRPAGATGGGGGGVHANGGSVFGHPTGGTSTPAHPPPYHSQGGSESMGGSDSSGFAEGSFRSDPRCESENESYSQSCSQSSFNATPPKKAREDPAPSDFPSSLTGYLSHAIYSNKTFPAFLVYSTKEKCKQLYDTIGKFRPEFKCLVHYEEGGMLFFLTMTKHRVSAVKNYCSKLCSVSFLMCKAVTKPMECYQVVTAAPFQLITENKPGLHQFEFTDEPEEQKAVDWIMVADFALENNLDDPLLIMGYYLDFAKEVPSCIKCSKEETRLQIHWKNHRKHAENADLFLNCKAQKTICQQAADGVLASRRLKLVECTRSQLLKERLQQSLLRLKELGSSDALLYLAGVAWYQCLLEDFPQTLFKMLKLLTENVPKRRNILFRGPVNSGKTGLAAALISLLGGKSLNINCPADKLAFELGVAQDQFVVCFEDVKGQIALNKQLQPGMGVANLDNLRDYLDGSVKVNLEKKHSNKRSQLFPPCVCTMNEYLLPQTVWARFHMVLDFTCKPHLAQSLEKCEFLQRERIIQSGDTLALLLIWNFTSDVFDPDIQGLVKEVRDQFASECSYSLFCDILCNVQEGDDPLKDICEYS
T3 sequence (P0DOJ8 whole entry): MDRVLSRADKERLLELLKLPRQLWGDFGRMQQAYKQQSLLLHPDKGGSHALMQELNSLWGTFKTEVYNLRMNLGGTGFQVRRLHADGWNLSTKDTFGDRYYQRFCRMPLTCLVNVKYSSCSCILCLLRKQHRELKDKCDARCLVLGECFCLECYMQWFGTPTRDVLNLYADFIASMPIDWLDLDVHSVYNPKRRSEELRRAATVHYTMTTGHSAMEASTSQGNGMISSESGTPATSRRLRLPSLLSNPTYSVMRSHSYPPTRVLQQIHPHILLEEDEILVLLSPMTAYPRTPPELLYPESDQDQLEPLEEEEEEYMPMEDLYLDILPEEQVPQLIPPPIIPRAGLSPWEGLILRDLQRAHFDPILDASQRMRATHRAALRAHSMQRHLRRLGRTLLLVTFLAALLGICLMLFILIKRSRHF

B1: murine Taz (transcriptional co-activator with PDZ binding motif) (other, mouse, UniProt Q9EPK5 1-395, looked up)
chain: MNPSSVPHPLPPPGQQVIHVTQDLDTDLEALFNSVMNPKPSSWRKKILPESFFKEPDSGSHSRQSSTDSSGGHPGPRLAGGAQHVRSHSSPASLQLGTGAGAAGGPAQQHAHLRQQSYDVTDELPLPPGWEMTFTATGQRYFLNHIEKITTWQDPRKVMNQPLNHVNLHPSITSTSVPQRSMAVSQPNLAMNHQHQQVVATSLSPQNHPTQNQPTGLMSVPNALTTQQQQQQKLRLQRIQMERERIRMRQEELMRQEAALCRQLPMETETMAPVNTPAMSTDMRSVTNSSSDPFLNGGPYHSREQSTDSGLGLGCYSVPTTPEDFLSNMDEMDTGENSGQTPMTVNPQQTRFPDFLDCLPGTNVDLGTLESEDLIPLFNDVESALNKSEPFLTWL
notes: Endogenous protein immunoprecipitated from mouse cell extracts, or a library clone in yeast; also called mTaz
Consider B1, for which the relative binding efficiency was 1 ratio large T: middle T: small T in assay [1], 100 ratio large T: middle T: small T in assay [2] and 7 ratio large T: middle T: small T in assay [3].
